Reference: patent US20090191584, “Transcriptional repression of sodium-iodide symporter in thyroid carcinoma” (UNIVERSITY OF KENTUCKY RESEARCH FOUNDATION, published 2009)

Biological target: PARP-1 (commercial) (Homo sapiens, UniProt P09874 SEQ:1-1013)
Assay: EMSA; 1.5 ug purified PARP-1, no shift
Conditions: tags: Trevigen; label: 32P
Protocol: To evaluate whether purified PARP-1 is associated with NRBS, Applicants performed EMSA using commercial PARP-1 and radiolabeled Probe A (FIG. 18, lane 3). […] As PARP-1 was reported to bind to DNA using its N-terminal domain, the N-terminal DNA-binding domain (1-372 aa) from human PARP-1 were stably transfected into KAK-1 cells. Nuclear extract from multiple pooled positive clones from this transfection or a single positive clone from the same transfection experiment were incubated with labeled Probe A and subjected to EMSA (FIG. 18; lanes 6 & 10, respectively). The gel-shift bands produced were not appreciably different from those produced by nuclear extract from KAK-1 cells transfected with the empty vector (pCR3.1; lane 8) or those produced by parental KAK-1 nuclear extract (lane 2). Addition of cold Probe A, in each case, competed similarly against their respective matched lanes (lanes 3, 7, 9, & 11).

Chain of PARP-1 (commercial) (P09874 2-1014): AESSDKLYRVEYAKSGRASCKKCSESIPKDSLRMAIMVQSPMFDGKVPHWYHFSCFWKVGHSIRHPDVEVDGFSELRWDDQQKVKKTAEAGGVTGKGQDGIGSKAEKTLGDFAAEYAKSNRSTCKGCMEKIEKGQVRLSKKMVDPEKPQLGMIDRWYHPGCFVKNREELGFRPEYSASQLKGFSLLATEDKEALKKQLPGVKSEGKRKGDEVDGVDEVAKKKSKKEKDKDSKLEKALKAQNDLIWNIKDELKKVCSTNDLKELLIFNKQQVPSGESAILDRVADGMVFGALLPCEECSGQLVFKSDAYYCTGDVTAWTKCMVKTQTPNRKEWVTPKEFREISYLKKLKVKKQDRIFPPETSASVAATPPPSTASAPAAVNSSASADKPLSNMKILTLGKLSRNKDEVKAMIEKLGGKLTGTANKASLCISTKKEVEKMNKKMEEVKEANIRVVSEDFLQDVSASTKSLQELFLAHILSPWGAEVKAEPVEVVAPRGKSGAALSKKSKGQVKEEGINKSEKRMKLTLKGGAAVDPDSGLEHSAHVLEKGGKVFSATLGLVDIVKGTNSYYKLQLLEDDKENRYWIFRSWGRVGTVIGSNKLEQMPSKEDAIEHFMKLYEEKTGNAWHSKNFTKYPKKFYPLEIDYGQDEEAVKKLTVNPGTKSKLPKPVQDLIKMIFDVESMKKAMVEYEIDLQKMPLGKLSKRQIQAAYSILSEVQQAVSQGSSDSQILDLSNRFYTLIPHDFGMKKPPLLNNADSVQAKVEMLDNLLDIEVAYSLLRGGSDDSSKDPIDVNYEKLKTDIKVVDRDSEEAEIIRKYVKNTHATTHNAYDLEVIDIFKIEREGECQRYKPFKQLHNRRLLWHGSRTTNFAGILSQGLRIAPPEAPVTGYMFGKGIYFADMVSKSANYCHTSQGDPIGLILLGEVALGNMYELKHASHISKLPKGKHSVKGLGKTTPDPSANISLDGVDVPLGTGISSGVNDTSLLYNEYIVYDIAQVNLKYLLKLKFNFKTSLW

B1: Probe A (-684 to -565 hNIS) (dsDNA)
DNA 1: AAGCAGGCTGTGCAGGCTTGGATAGTGACATGCCCTTTTTGAGCCTCAATTTCCCCACCTGTCAACAGCAGACAGTGACAGCTGTGATCAGGGGATCACAGTGCATGGGGATGGGTGTGT
DNA 2: ACACACCCATCCCCATGCACTGTGATCCCCTGATCACAGCTGTCACTGTCTGCTGTTGACAGGTGGGGAAATTGAGGCTCAAAAAGGGCATGTCACTATCCAAGCCTGCACAGCCTGCTT
B1: no binding.
